# Experimental data taken from article PMC4287557.
# B1: PGV04 Fab (Fab, V domains shown)
# VH: QVQLVQSGSGVKKPGASVRVSCWTSEDIFERTELIHWVRQAPGQGLEWIGWVKTVTGAVNFGSPDFRQRVSLTRDRDLFTAHMDIRGLTQGDTATYFCARQKFYTGGQGWYFDLWGRGTLIVVSS
# VL: EIVLTQSPGTLSLSPGETASLSCTAASYGHMTWYQKKPGQPPKLLIFATSKRASGIPDRFSGSQFGKQYTLTITRMEPEDFARYYCQQLEFFGQGTRLEIR
# Target: JRFL SOSIP trimer (HIV-1 subtype B, truncated at residue 663), negatively selected (HIV-1 subtype B strain JRFL)
binder,measurement,value
B1,"increase of the melting temperature (Tm) of the JRFL SOSIP-Fab complex over the trimer alone, DSF",3.6 °C
